# Experimental data: article PMC9406036, “The Catalytic Domain Mediates Homomultimerization of MT1-MMP and the Prodomain Interferes with MT1-MMP Oligomeric Complex Assembly” (Biomolecules, 2022)
# Where “and” joins values, the source holds several entries; their conditions need not be identical. Equal values may be shown once.
# B1: WT-Cat-L (catalytic domain with the linker of MT1-MMP), secreted without the prodomain (domain or fragment)
# chain: not shown
# notes: human MT1-MMP (MMP-14) catalytic domain with the linker; Found as monomer, dimer and higher multimers on gel filtration; also called Cat-L construct; source: Drosophila S2 insect cells, purified (IMAC, Sephacryl S-200)
# Molecular target: the molecule itself
# Experiment: SEC; preparative Sephacryl S-200 gel filtration (120 mL), IMAC-purified protein at about 1 mg/mL, 1 mL injected after a 0.22 µm filter, 50 mM Tris pH 7.4, 150 mM NaCl, 5 mM CaCl2, 10 µM CT1746; sizes from a calibration curve; fractions checked by SDS-PAGE
protein,measurement,value
B1,stoichiometry N,2 and > 3
